The RNAGym collection of RNA variant scans (doi:10.1101/gr.219683.116)

B1: mRNA-splicing (parent)
chain: AGUUGCUGCUGGGAGCUCCAGCACAGUGAAAUGGACAGAAGGGCAGAGCAA

Variants of: B1
Experiment: exon inclusion enrichment index; higher = more inclusion; WT1 exon 5 minigene, HEK293

| Variant | exon inclusion enrichment index |
| --- | --- |
| C6A U7A C9A U10A A47U | 0.546 |
| C6A U7A C9A U10A A25G | 1.94 |
| C6A U7A C9A U10A A25U | 1.04 |
| C6A U7A C9A U10A A25C | 2.61 |
| C6A U7A C9A U10A A39U | 0.0237 |
| C6A U7A C9A U10A A39C | 0.201 |
| C6A U7A C9A U10A A39G | 0.404 |
| C6A U7A C9A U10A A29C | 0.513 |
| C6A U7A C9A U10A A29G | 1.06 |
| C6A U7A C9A U10A A29U | 0.131 |
| C6A U7A C9A U10A A37U G38A | 0.258 |
| C6A U7A C9A U10A A37U G38U | 0.112 |
| C6A U7A C9A U10A A37U G38C | 0.667 |
| C6A U7A C9A U10A C44U A45G | 0.419 |
| C6A U7A C9A U10A C44U A45U | 0.433 |
| C6A U7A C9A U10A C44U A45C | 1.16 |
| C6A U7A C9A U10A G15A | 0.818 |
| C6A U7A C9A U10A G15U | 0.786 |
| C6A U7A C9A U10A G15C | 1.25 |
| C6A U7A C9A U10A C36A A37C | 0.81 |
| C6A U7A C9A U10A C36A A37G | 0.204 |

| Variant | exon inclusion enrichment index |
| --- | --- |
| C6A U7A C9A U10A C36A A37U | 0.229 |
| C6A U7A C9A U10A A30U | 0.433 |
| C6A U7A C9A U10A A30C | 0.809 |
| C6A U7A C9A U10A A30G | 0.658 |
| C6A U7A C9A U10A G12U | 0.96 |
| C6A U7A C9A U10A G12C | 2.21 |
| C6A U7A C9A U10A G12A | 1.32 |
| C6A U7A C9A U10A A40C G41C | 1.98 |
| C6A U7A C9A U10A A40C G41A | 0.218 |
| C6A U7A C9A U10A A40C G41U | 0.431 |
| C6A U7A C9A U10A G33C G34C | 0.353 |
| C6A U7A C9A U10A G33C G34U | 0.522 |
| C6A U7A C9A U10A G33C G34A | 0.421 |
| C6A U7A C9A U10A C24G A25U | 0.778 |
| C6A U7A C9A U10A C24G A25C | 2.12 |
| C6A U7A C9A U10A C24G A25G | 0.308 |
| C6A U7A C9A U10A C36G | 0.433 |
| C6A U7A C9A U10A C36A | 0.531 |
| C6A U7A C9A U10A C36U | 0.122 |
| C6A U7A C9A U10A A31U U32C | 1.09 |
| C6A U7A C9A U10A A31U U32G | 0.311 |

| Variant | exon inclusion enrichment index |
| --- | --- |
| C6A U7A C9A U10A A31U U32A | 0.0674 |
| C6A U7A C9A U10A A29C A30U | 0.34 |
| C6A U7A C9A U10A A29C A30C | 1.17 |
| C6A U7A C9A U10A A29C A30G | 1.51 |
| C6A U7A C9A U10A G34A | 0.344 |
| C6A U7A C9A U10A G34U | 0.123 |
| C6A U7A C9A U10A G34C | 0.179 |
| C6A U7A C9A U10A A35G C36U | 0.00209 |
| C6A U7A C9A U10A A35G C36G | 0.0241 |
| C6A U7A C9A U10A A35G C36A | 0.281 |
| C6A U7A C9A U10A A47C G48A | 0.547 |
| C6A U7A C9A U10A A47C G48C | 0.797 |
| C6A U7A C9A U10A A47C G48U | 0.811 |
| C6A U7A C9A U10A G28C A29U | 0.358 |
| C6A U7A C9A U10A G28C A29G | 1.45 |
| C6A U7A C9A U10A G28C A29C | 0.683 |
| C6A U7A C9A U10A G13A A14C | 2.82 |
| C6A U7A C9A U10A G13A A14U | 1.82 |
| C6A U7A C9A U10A G13A A14G | 1.21 |
| C6A U7A C9A U10A A30U A31G | 0.653 |
| C6A U7A C9A U10A A30U A31C | 0.579 |

| Variant | exon inclusion enrichment index |
| --- | --- |
| C6A U7A C9A U10A A30U A31U | 0.426 |
| C6A U7A C9A U10A C22G | 0.964 |
| C6A U7A C9A U10A C22A | 0.593 |
| C6A U7A C9A U10A C22U | 0.414 |
| C6A U7A C9A U10A C44G | 1.03 |
| C6A U7A C9A U10A C44A | 1.49 |
| C6A U7A C9A U10A C44U | 0.122 |
| C6A U7A C9A U10A C18G C19A | 0.924 |
| C6A U7A C9A U10A C18G C19G | 0.718 |
| C6A U7A C9A U10A C18G C19U | 0.076 |
| C6A U7A C9A U10A A37U | 0.746 |
| C6A U7A C9A U10A A37G | 1.54 |
| C6A U7A C9A U10A A37C | 1.72 |
| C6A U7A C9A U10A G28A A29C | 0.433 |
| C6A U7A C9A U10A G28A A29G | 0.227 |
| C6A U7A C9A U10A G28A A29U | 0.156 |
| C6A U7A C9A U10A C44G A45U | 0.598 |
| C6A U7A C9A U10A C44G A45G | 0.124 |
| C6A U7A C9A U10A C44G A45C | 1.44 |
| C6A U7A C9A U10A G26U U27G | 1.76 |
